According to paper PMC11088064 (2024):

B1: His-tagged mPD-1 (PD1-M5228, ACRO Biosystem) (receptor)
chain: LEVPNGPWRSLTFYPAWLTVSEGANATFTCSLSNWSEDLMLNWNRLSPSNQTEKQAAFCNGLSQPVQDARFQIIQLPNRHDFHMNILDTRRNDSGIYLCGAISLHPKAKIEESPGAELVVTERILETSTRYPSPSPKPEGRFQGM
B2: GNUV201 (antibody, V domains shown)
VH: QVQLVQSGAEVKKPGASVKVSCKASGYTFTGYWMHWVRQAPGQGLEWIGMIHPNSDTTTYNEKFKNRVTMTRDTSISTAYMELSRLRSDDTAVYYCAGTDQAAWFAFWGQGTTVTVSS
VL: DIVMTQTPLSLSVTPGQPASISCRSSQNIVHSQGDTYLEWYLQKPGQSPQLLIYKVSKRFSGVPDRFSGSGSGTDFTLKISRVEAEDVGVYYCFQGSHVPWTFGGGTKVEIK

Key:
RMP1-14 [1] = experiment: SPR; pH 7.4
RMP1-14 [2] = experiment: SPR; pH 6.0
[3] = target: T1, hPD-1 (PD-1-H5221, ACRO Biosystems) (human, UniProt Q15116 25-170); experiment: SPR; pH 7.4
T1 sequence (Q15116 25-170): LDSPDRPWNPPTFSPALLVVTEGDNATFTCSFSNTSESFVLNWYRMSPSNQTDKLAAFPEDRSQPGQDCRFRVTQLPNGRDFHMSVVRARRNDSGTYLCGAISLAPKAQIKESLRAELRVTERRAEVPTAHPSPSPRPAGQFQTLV

[4] = target: B1; experiment: SPR; pH 7.4
[5] = target: T1, hPD-1 (PD-1-H5221, ACRO Biosystems); experiment: SPR; pH 7.4; remark: listed apart in the source
[6] = target: B1; experiment: SPR; pH 7.4
[7] = target: B1; experiment: SPR; pH 6.0
[8] = target: T1, hPD-1 (PD-1-H5221, ACRO Biosystems); experiment: SPR; pH 6.0
[9] = target: B1; experiment: SPR; pH 6.0

Binder | Kd (RMP1-14 [1]) [nM] | koff (RMP1-14 [1]) [s⁻¹] | Kd (RMP1-14 [2]) [nM] | koff (RMP1-14 [2]) [s⁻¹] | Kd [3] [nM] | Kd [4] [nM] | koff [5] [s⁻¹] | koff [6] [s⁻¹] | Kd [7] [nM] | koff [8] [s⁻¹] | koff [9] [s⁻¹]
B1 | 2.43 | 0.00028 | 2.88 | 0.00025 | – | – | – | – | – | – | –
B2 | – | – | – | – | 0.41 | 0.38 | 6e-05 | 9e-05 | 0.18 | 3e-05 | 5e-05
